In assay [1] the target is T1, human CCR1 (C-C chemokine receptor-1) (human, UniProt P32246 1-355).
T1 sequence (looked up): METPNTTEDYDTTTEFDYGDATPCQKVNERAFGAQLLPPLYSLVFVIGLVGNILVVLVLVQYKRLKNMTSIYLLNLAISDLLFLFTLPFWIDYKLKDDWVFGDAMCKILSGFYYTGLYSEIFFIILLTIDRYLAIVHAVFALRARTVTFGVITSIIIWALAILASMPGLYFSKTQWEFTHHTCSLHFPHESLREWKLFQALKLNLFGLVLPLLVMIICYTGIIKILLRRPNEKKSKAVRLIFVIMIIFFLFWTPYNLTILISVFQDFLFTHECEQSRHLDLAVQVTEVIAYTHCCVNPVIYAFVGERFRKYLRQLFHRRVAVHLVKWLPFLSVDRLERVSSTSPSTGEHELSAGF
As to the kind of experiment: cell-based or functional assay.

The target in assay [2] is T1, human CCR1 (C-C chemokine receptor-1). As to the kind of experiment: competition with 125I-MIP-1α on human monocytes.
The target is the same in assay [3]. The assay can be described thus: competition with 125I-MIP-1α on L1.2-CCR1 cells, 3 hr at 4° C., filter binding. As for the experimental part: (§1) Binding assay. Competition binding studies were conducted using monocytes, L1.2-CCR1 or L1.2-FPRL1 cells. […] Reactions were aspirated onto PEI-treated GF/B glass filters using a cell harvester (Packard). Filters were washed twice (25 mM HEPES, 500 mM NaCl, 1 mM CaCl₂, 5 mM MgCl₂, adjusted to pH 7.1). Scintillant (MicroScint-10; 35 μl) was added to the filters and counted in a Packard Topcount scintillation counter. Data were analyzed and plotted using Prism (GraphPad Software, San Diego, Calif.).

Assay [4] deals with T2, human FPRL1 (formyl peptide receptor like 1) (human, UniProt P25090 1-351).
T2 construct: whole, on cells; also called L1.2-FPRL1; CCR12 (provisional)
T2 sequence (looked up): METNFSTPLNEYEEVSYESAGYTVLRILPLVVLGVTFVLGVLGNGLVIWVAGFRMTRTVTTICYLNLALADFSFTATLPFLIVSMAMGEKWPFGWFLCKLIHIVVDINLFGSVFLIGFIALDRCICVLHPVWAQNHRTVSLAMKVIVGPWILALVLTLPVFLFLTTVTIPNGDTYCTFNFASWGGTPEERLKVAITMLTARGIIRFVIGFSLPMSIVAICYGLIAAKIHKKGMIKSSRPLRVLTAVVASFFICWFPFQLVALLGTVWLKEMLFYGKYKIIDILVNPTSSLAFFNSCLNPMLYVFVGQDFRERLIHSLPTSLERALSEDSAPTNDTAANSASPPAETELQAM
The assay can be described thus: competition with 125I-WKYMVm on L1.2-FPRL1 cells, filter binding. As for the experimental part: as §1

Assay [5] addresses T2, human FPRL1 (formyl peptide receptor …). The assay can be described thus: competition with 125I-WKYMVm on human monocytes, filter binding. As for the experimental part:
as §1

Assay [6] has as its target T1, human CCR1 (C-C chemokine receptor-1). The assay can be described thus: competition with 125I-MIP-1α on human monocytes, 3 hr at 4° C., filter binding. As for the experimental part:
as §1

Assay [7] addresses T2, human FPRL1 (formyl peptide receptor …). As to the kind of experiment: cell-based or functional assay.
The target in assay [8] is T1, human CCR1 (C-C chemokine receptor-1). The assay can be described thus: competition with 125I-MIP-1α on L1.2-CCR1 cells. The procedure: as §1

In assay [1], “CCL5/RANTES (from UniProt P13501 24-91) (ligand)” showed an EC50, THP-1 cell migration of 0.5 nM and a fold decrease in potency in THP-1 cell chemotaxis relative to CCL15Δ24/LKN-1 of 3 fold.

B1: CCL15/MIP-1δ digested with PMN sup #1 (ligand)
chain: VLNSFHFAADCCTSYISQSIPCSLMKSYFETSSECSKPGVIFLTKKGRQVCAKPSGPGVQDCMKKLKPYSI
The molecule B1 displayed an EC50, THP-1 cell chemotaxis in assay [1] of 0.25 nM.

B2: CCL15/MIP-1δ (92aa) (ligand)
chain: QFINDAETELMMSKLPLENPVVLNSFHFAADCCTSYISQSIPCSLMKSYFETSSECSKPGVIFLTKKGRQVCAKPSGPGVQDCMKKLKPYSI
Consider B2, for which the “EC50, THP-1 cell chemotaxis” value in assay [1] is 50 nM.

B3: CCL15/MIP-1δ digested with chymase (ligand)
chain: AADCCTSYISQSIPCSLMKSYFETSSECSKPGVIFLTKKGRQVCAKPSGPGVQDCMKKLKPYSI
Regarding B3, in assay [1], the EC50, THP-1 cell chemotaxis is 0.05 nM and the fold increase of potency in THP-1 cell migration over full-length CCL15/MIP-1δ is 1000 fold.

B4: CCL23β Δ24 (ligand)
chain: MLWRRKIGPQMTLSHAAGFHATSADCCISYTPRSIPCSLLESYFETNSECSKPGVIFLTKKGRRFCANPSDKQVQVCMRMLKLDTRIKTRKN
notes: Begins with the 18-residue SHAAGtide insertion; R&D Systems catalog item; also called CCLβΔ24
With B4, the “fold increase in binding activity over full-length CCL23β” value in assay [2] is more than 10 fold. The IC50 (as a rule, the concentration that inhibits the measured activity by half) in assay [3] amounted to 20 nM; in assay [4] it was 210 nM; in assay [5], 35 nM; in assay [6], 4.5 nM.
In the case of LWRRKIGPQMTLSHAAG [SHAAGtide lacking the N-terminal amino acid (Met)], the “fold decrease in potency for receptor signaling in L1.2-FPRL1 cells, relative to SHAAGtide” value in assay [7] is approximately 10 fold.

B5: CCL23α Δ24 (CCL23Δ24/MPIF-1, 46-120) (ligand)
chain: RFHATSADCCISYTPRSIPCSLLESYFETNSECSKPGVIFLTKKGRRFCANPSDKQVQVCMRMLKLDTRIKTRKN
notes: Recombinant CCL23/CKβ8 lacking the N-terminal 24 residues
In the case of B5, the “fold increase in binding activity over full-length CCL23α” value in assay [2] was more than 10 fold. Also, the “EC50, THP-1 cell chemotaxis” value in assay [1] stood at 0.09 nM.

B6: CCL23/CKβ8 digested with PMN sup #1 (ligand)
chain: LLDRFHATSADCCISYTPRSIPCSLLESYFETNSECSKPGVIFLTKKGRRFCANPSDKQVQVCMRMLKLDTRIKTRKN
B6: the EC50, THP-1 cell chemotaxis in assay [1] was 0.15 nM.

B7: CCL23/CKβ8 digested with chymase (ligand)
chain: HATSADCCISYTPRSIPCSLLESYFETNSECSKPGVIFLTKKGRRFCANPSDKQVQVCMRMLKLDTRIKTRKN
In assay [1], B7 yielded an EC50, THP-1 cell chemotaxis of 0.05 nM and a fold decrease of EC50 against undigested CCL23/CKβ8, THP-1 cell chemotaxis of 50 fold.

B8: CCL23α (CCL23/CKβ8, 22-120) (ligand)
chain: RVTKDAETEFMMSKLPLENPVLLDRFHATSADCCISYTPRSIPCSLLESYFETNSECSKPGVIFLTKKGRRFCANPSDKQVQVCMRMLKLDTRIKTRKN
Turning to B8, the “EC50, THP-1 cell chemotaxis” value in assay [1] was found to be 2.5 nM.

B9: CCL3/MIP-1α (ligand, UniProt P10147 27-92, looked up)
chain: ADTPTACCFSYTSRQIPQNFIADYFETSSQCSKPGVIFLTKRSRQVCADPSEEWVQKYVSDLELSA
modifications: also: 125I-labelled when used as tracer
In the case of B9, the half-maximal inhibitory concentration (IC50) in assay [3] amounted to 0.15 nM. Moreover, in assay [1], the “EC50, THP-1 cell migration” value was determined as 0.5 nM and the “fold decrease in potency in THP-1 cell chemotaxis relative to CCL15Δ24/LKN-1” value is approximately 3 fold. This molecule showed an IC50 in assay [6] of 0.3 nM.
Regarding MLWRRKIGPQMT [CCXP5], the “potency for receptor signaling in L1.2-FPRL1 cells, relative to SHAAGtide” value in assay [7] was found to be 3 fold.

B10: CCL23β (ligand)
chain: RVTKDAETEFMMSKLPLENPVLLDMLWRRKIGPQMTLSHAAGFHATSADCCISYTPRSIPCSLLESYFETNSECSKPGVIFLTKKGRRFCANPSDKQVQVCMRMLKLDTRIKTRKN
notes: 116-residue alternatively spliced form; recombinant, special order from R&D Systems; also called CKβ8-1
On to B10, for which, in assay [2], the binding result is given as “binds”.

B11: CCL15Δ24/LKN-1 (68aa) (ligand)
chain: SFHFAADCCTSYISQSIPCSLMKSYFETSSECSKPGVIFLTKKGRQVCAKPSGPGVQDCMKKLKPYSI
For B11, in assay [1], the “EC50, THP-1 cell chemotaxis” value came out at 0.06 nM.

B12: SHAAGtide (MLWRRKIGPQMTLSHAAG) (peptide)
peptide: MLWRRKIGPQMTLSHAAG
notes: Synthetic 18-residue peptide; also called CCXP1; SHAAGtide peptide
With B12, the “EC50 in functional assays” value in assay [7] was in the range of 10 to 30 nM. The IC50 in assay [4] amounted to 280 nM; in assay [5], 10 nM. Also, the binding result in assay [8] was “no binding”.

The values are drawn from patent US20060063223A1 (CHEMOCENTRYX, published 2006).
